Results published in patent US20110206633A1, “POLYMER CONJUGATES OF CD-NP PEPTIDES” (priority 2008, published 2011).
Entries after “also recorded” stand apart in the source; their conditions may differ.

What was measured:
[1] = rat, in vivo, iv
Procedure: (§1) Thirty one (31) adult male Sprague-Dawley rats with indwelling jugular vein and carotid artery catheters (JVC/CAC) (Charles River Labs, Hollister, Calif.) were utilized for this study. […] All animals were food fasted overnight. Prior to dosing, the rats were weighed, the tails and cage cards were labeled for identification and the doses were calculated. Anesthesia was induced and maintained with 3.0-5.0% isoflurane. The JVC and CAC were externalized and flushed with HEP/saline (10 IU/mL HEP/mL saline). The predose sample was collected from the JVC and the catheters were plugged, and labeled to identify the jugular vein and carotid artery. When all of the animals had recovered from anesthesia and the predose samples were processed, the animals were dosed, intravenously (IV) via the JVC using a 1 mL syringe containing the appropriate test article and the dead volume of the catheter was flushed with 0.9% saline to ensure the animals received the correct dose.
(§2) Following a single IV dose, blood samples were collected from groups 1A, 2A, 3A and 4A, at 0 (pre-dose collected as described above), 0.03, 0.33, 2.0, 6.0, 12.0 and 72.0 hours and from Groups 1B, 2B, 3B and 4B at 0 (pre-dose collected as described above), 0.17, 1.0, 4.0, 8.0, 24.0 and 48.0 hours via the carotid artery catheter and processed as stated in the protocol. Following the last collection point, the animals were euthanized.
(§3) Concentrations in plasma that were below LLOQ were replaced with zeros prior to generating Tables and PK analysis. In the event that more than half (>50%) of the data points were below zero, mean concentration will not be shown in the figures or used in PK parameters estimation. The following PK parameters were estimated using plasma concentration-time profile of each animal:
(§4) C0 Extrapolated concentration to time “zero” Cmax Maximum (peak) concentration AUCall Area under the concentration-time from zero to time of last concentration value T1/2(Z) Terminal elimination half-life AUCinf Area under the concentration-time from zero to time infinity Tmax Time to reach maximum or peak concentration following administration CL Total body clearance Vz Volume of distribution based on terminal phase Vss Volume of distribution at steady state MRTlast Mean residence time to last observable concentration

[2] = Pharmacokinetic study, single IV dose in rats, plasma concentrations, noncompartmental analysis; details: for AUCINF / CL / Cmax / MRTlast / T½ / Vss: non-released PEG-BNP (or native BNP), equivalent protein mass 0.459 mg/kg IV, Sprague Dawley rats
Procedure: as §1, §2, §3, §4

Molecule | peak concentration of conjugate in plasma ([1]; male, Sprague-Dawley) [ng/mL] | time of peak concentration of released BNP [1] [h] | time plasma conjugate concentrations remained above 100 ng/mL [1] | time released BNP stayed above 20 ng/mL [1] [h] | half-life of conjugate in plasma ([2]; intact C2-FMOC-PEG2-40K-BNP, IV bolus, rats) [h] | peak plasma concentration compared with ButyrALD-10K-BNP [1] | clearance compared with ButyrALD-10K-BNP ([2]; IV, rats, in words) | half-life compared with ButyrALD-10K-BNP ([2]; IV, rats, in words) | AUCINF [2] [ng·h/mL] | CL [2] [mL/min/kg] | Cmax [2] [ng/mL] | MRTlast [2] [h] | T½ [2] [h] | Vss [2] [L/kg] | measurable BNP in plasma after BNP administration ([2]; IV, rats, in words)
C2-FMOC-PEG2-40K-BNP: releasable mono-PEG conjugate of BNP-32 with mPEG2-C2-fmoc-NHS-40K; hydrolysis generates unmodified peptide | 1300 | 0.3 | up to 24 h | 8 | 15.0 | – | – | – | – | – | – | – | – | – | –
ButyrALD-40K-BNP: non-releasable 40 kDa mPEG2-Butyr-ALD mono-PEG conjugate of BNP-32, N-terminus directed | – | – | – | – | – | higher peak plasma concentration | lower clearance | longer half-life | 41300 | 0.185 | 1410 | 24.0 | 26.1 | 0.631 | –
ButyrALD-10K-BNP: non-releasable mPEG-Butyr-ALD-10K mono-PEG conjugate of BNP-32, N-terminus directed | – | – | – | – | – | – | – | – | 96.6 | 79.17 | 355 | 0.368 | 0.272 | 2.27 | –
CC[C@H](C)[C@@H]1NC(=O)[C@H](CCCNC(=N)N)NC(=O)[C@H](CC(=O)O)NC(=O)[C@H](CCSC)NC(=O)[C@H](CCCCN)NC(=O)[C@H](CCCNC(=N)N)NC(=O)CNC(=O)[C@H](Cc2ccccc2)NC(=O)[C@@H](NC(=O)CNC(=O)[C@H](CO)NC(=O)CNC(=O)[C@H](CCC(N)=O)NC(=O)[C@@H](NC(=O)[C@H](CCSC)NC(=O)[C@H](CCCCN)NC(=O)[C@@H]2CCCN2C(=O)[C@@H](N)CO)C(C)C)CSSC[C@@H](C(=O)N[C@@H](CCCCN)C(=O)N[C@H](C(=O)N[C@@H](CC(C)C)C(=O)N[C@@H](CCCN=C(N)N)C(=O)N[C@@H](CCCN=C(N)N)C(=O)N[C@@H](Cc2cnc[nH]2)C(=O)O)C(C)C)NC(=O)CNC(=O)[C@H](CC(C)C)NC(=O)CNC(=O)[C@H](CO)NC(=O)[C@H](CO)NC(=O)[C@H](CO)NC(=O)[C@H](CO)NC1=O [BNP, nesiritide, reference compound] | – | – | – | – | – | – | – | – | – | – | – | – | – | – | No measurable plasma concentrations; also recorded: No BNP was measurable in plasma
